Source: patent publication US20240270840A1 (NECTIN THERAPEUTICS, published 2024)
Substitutions are numbered along the chain they refer to. Names may count otherwise. Blank lines part the entries; values can stand above or below the binder they belong to.

Assays:
Human CD112R (PVRIG) [1] = biological target: T1, Human CD112R (PVRIG) (human, UniProt Q6DKI7 41-171, limits assumed); assay: SPR (Biacore), against the reference Ab
T1 sequence (looked up): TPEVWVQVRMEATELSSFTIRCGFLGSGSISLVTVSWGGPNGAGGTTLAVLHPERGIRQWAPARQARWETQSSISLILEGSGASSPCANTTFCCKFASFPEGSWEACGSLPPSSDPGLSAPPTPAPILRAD

Human CD112R (PVRIG) [2] = biological target: T1, Human CD112R (PVRIG); assay: SPR (Biacore); human CD112R as ligand, antibody as analyte
[3] = biological target: T2, Human CD112R expressed on cells (human, UniProt Q6DKI7 1-326); assay: FACS, chimeric mAb 99-0.4 nM in three-fold dilutions on HEK 293T cells overexpressing CD112R, anti-human-APC 1:200
T2 construct: whole, on cells; also called HuCD112R; hCD112R
T2 sequence (looked up): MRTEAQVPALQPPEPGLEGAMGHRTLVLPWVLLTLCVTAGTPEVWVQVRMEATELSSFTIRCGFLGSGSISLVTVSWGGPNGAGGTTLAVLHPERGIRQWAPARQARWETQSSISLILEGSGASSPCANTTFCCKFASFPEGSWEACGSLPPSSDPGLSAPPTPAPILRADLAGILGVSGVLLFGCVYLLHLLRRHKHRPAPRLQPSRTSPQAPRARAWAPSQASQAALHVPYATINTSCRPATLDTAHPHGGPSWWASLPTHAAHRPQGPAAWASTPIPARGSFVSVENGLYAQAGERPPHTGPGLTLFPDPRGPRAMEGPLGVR
Method: For detection, anti-human-APC antibody (Ab) was used at 1:200 dilution, and cell binding was analyzed by FACS. FIG. 3C—8866 cells ([…]) overexpressing human Nectin-2 were incubated with 10 μg/ml of CD112R-Fc in the presence of isotype control Ab, or with the indicated clones at 4 μg/ml. Bound CD112R-Fc was detected by anti-mouse-Dy-647 1:250 dilution and analyzed by FACS. The blocking of CD112R binding exceeded 95% by all the variants.
Binding was analyzed by FACS and used for calculation of EC-50 values. […] The N31S variant, engineered to remove an N-Linked glycosylation motif at the CDR1 of the heavy chain, had improved (sub-nM) binding to human CD112R in this cell-based assay.

Human CD112R (PVRIG) [4] = biological target: T1, Human CD112R (PVRIG); assay: affinity of glycosylation-motif variants (Table 2; method not named there)
[5] = biological target: Cynomolgus monkey (Macaca fascicularis) CD112R expressed on cells (cynomolgus monkey (Macaca fascicularis)); assay: flow cytometry on 293T cells expressing cynomolgus CD112R; 99-0.05 nM, three-fold dilutions
Human CD112R (PVRIG) [6] = biological target: T1, Human CD112R (PVRIG); assay: SPR (Biacore); human CD112R as ligand, antibody as analyte; * limit of Biacore instrument
[7] = biological target: Cynomolgus monkey (Macaca fascicularis) CD112R expressed on cells (cynomolgus monkey (Macaca fascicularis)); assay: flow cytometry on 293T cells; EC50 on cynomolgus CD112R against EC50 on human CD112R
[8] = biological target: T2, Human CD112R expressed on cells; assay: flow cytometry on 293T cells expressing human CD112R; 99-0.05 nM, three-fold dilutions
Method: (§1) The humanized mAbs were tested for binding of endogenous and overexpressed human and cynomolgus CD112R.

Human CD112R (PVRIG) [9] = biological target: T1, Human CD112R (PVRIG); assay: SPR (Biacore); purified full antibody
[10] = biological target: T2, Human CD112R expressed on cells; assay: flow cytometry competition on 293T cells overexpressing CD112R; antibody 40-0.018 nM; competitor hNectin-2-mIgG2a at 125 nM
Method: The humanized anti-CD112R antibodies are potent blockers of CD112R—Nectin-2 interactions. […] The antibodies were added in a range of concentrations of 40-0.018 nM in a series of three-fold dilutions. The amount of bound hNectin-2-mIgG2a was detected by anti-mouse antibodies fluorescently labeled with Dy-light 647 (115-606-071 Jackson immunoresearch) and analyzed by FACS.

[11] = biological target: T2, Human CD112R expressed on cells; assay: flow cytometry on human NK cells (endogenous CD112R)
[12] = biological target: Cynomolgus monkey (Macaca fascicularis) CD112R expressed on cells (cynomolgus monkey (Macaca fascicularis)); assay: flow cytometry on cynomolgus CD8 T cells (endogenous CD112R)
[13] = biological target: Cynomolgus monkey (Macaca fascicularis) CD112R expressed on cells (cynomolgus monkey (Macaca fascicularis)); assay: flow cytometry; EC-50 on cynomolgus CD8 T cells against EC-50 on human NK cells
[14] = biological target: T2, Human CD112R expressed on cells; assay: flow cytometry on human NK cells (endogenous CD112R); remark: listed apart in the source
Method: as §1
(§2) Table 7 summarizes EC50 values calculated based on the binding curves of selected humanized mAbs to cynomolgus CD8 T cells and human NK cells, both cells expressing endogenous CD112R of the relevant species. Assay was performed as in Table 6. An anti-CD112R mAb disclosed in WO2016134333 was used for comparison. All the humanized variants have a complete cross-reactivity between the human and cynomolgus targets.

[15] = biological target: T2, Human CD112R expressed on cells; assay: flow cytometry; max binding on human NK cells against max binding on cynomolgus CD8 T cells
Method: as §1, §2

[16] = biological target: T2, Human CD112R expressed on cells; assay: flow cytometry EC-50 on human NK cells, against the reference Ab (member assigned from Table 7)
Human CD112R (PVRIG) [17] = biological target: T1, Human CD112R (PVRIG); assay: SPR (Biacore); purified full antibody; * limit of the Biacore instrument sensitivity

B1: chimeric clone-13(N31S)-hIgG1 (VH0K0) (antibody, V domains shown)
VH: QVQLQQPGAELVKPGTSVKLSCKASGYNFTSYWINWVKLRPGQGLEWIGDIYPGSYIPNYNEKFKNKATLTVDTSSSTAYMQLTSLASEDSALYYCAGGYFDVWGAGTTVTVSS
VL: DIVMTQSPSSLSVSAGEKVTMSCKSSQSLLSSGNQKNYLAWYQQKPGQPPKLLIYGASTRESGVPDRFTGSGSGTDFTLTISSVQAEDLAVYYCQNDHSYPYTFGGGTKLEIK
notes: Chimeric, human IgG1; Light chain with N31S (deamidation removal), also denoted N27dS by Kabat numbering; also called clone N31S; VH0Vk0
fold more potent in binding CD112R than the reference Ab (Human CD112R (PVRIG) [1]): 3 to 30 fold
koff (Human CD112R (PVRIG) [2]): 3.26e-07 s⁻¹
kon (Human CD112R (PVRIG) [2]): 340000 M⁻¹ s⁻¹
EC50 [3]: 0.7 nM
Kd (Human CD112R (PVRIG) [4]): 0.167 nM
Relative Kd (against VH0Vk0) (Human CD112R (PVRIG) [4]): 1
EC50 [5]: 0.97 nM
Kd (Human CD112R (PVRIG) [6]): 0.96 pM
Ratio Cyno/Hu (EC50) [7]: 1.75
EC50 [8]: 0.55 nM
Kd (Human CD112R (PVRIG) [9]): 0.145 nM
Relative Kd (against VH0K0 N28T) (Human CD112R (PVRIG) [9]): 1.16
koff (Human CD112R (PVRIG) [9]): 3.05e-05 s⁻¹
kon (Human CD112R (PVRIG) [9]): 210000 M⁻¹ s⁻¹

B3: H11K2 (full humanized antibody) (antibody, V domains shown)
VH: QVQLVQSGAEVKKPGSSVKVSCKASGYTFTSYWINWVRQAPGQGLEWIGDIYPGSYIPNYNEKFKNRATLTVDTSASTAYMELSSLRSEDTAVYYCAGGYFDVWGQGTTVTVSS
VL: B1 VL with S9D, S12A, A15L, K18R, V19A, M21I, S22N, V84L, L89V, G106Q
notes: Humanized full antibody, human IgG1; also called VH11K2
EC50 [10]: 0.32 nM
EC-90 [10]: 9.9 nM
Max binding Hu (MFI a.u - background) [11]: 1020 MFI a.u
EC50 [12]: 1.29 nM
Max binding Cyno (MFI a.u - background) [12]: 839 MFI a.u
Ratio Cyno/Hu (EC-50) [13]: 1.22
EC50 [5]: 0.71 nM
EC50 [14]: 1.06 nM
Ratio Cyno/Hu (EC50) [7]: 2.54
EC50 [8]: 0.28 nM
Kd (Human CD112R (PVRIG) [9]): 0.112 nM
Relative Kd (against VH0K0 N28T) (Human CD112R (PVRIG) [9]): 0.89
koff (Human CD112R (PVRIG) [9]): 3.77e-05 s⁻¹
kon (Human CD112R (PVRIG) [9]): 336000 M⁻¹ s⁻¹
Ratio Hu/Cyno (max binding) [15]: 1.21

B7: H11K1 (full humanized antibody) (antibody, V domains shown)
VH: B3 VH
VL: B1 VL with S9D, A15L, K18R, V19A, M21I, S22N, V84L, L89V, G106Q
notes: Humanized full antibody, human IgG1; also called VH11K1
fold improved binding compared to the reference Ab [16]: > 2 fold
EC50 [10]: 0.29 nM
EC-90 [10]: 10.7 nM
Kd (Human CD112R (PVRIG) [17]): 0.0167 nM
Relative Kd (against VH0K0 N28T) (Human CD112R (PVRIG) [17]): 0.13
koff (Human CD112R (PVRIG) [17]): 4.79e-06 s⁻¹
kon (Human CD112R (PVRIG) [17]): 287000 M⁻¹ s⁻¹
Max binding Hu (MFI a.u - background) [11]: 982 MFI a.u
EC50 [12]: 1.46 nM
Max binding Cyno (MFI a.u - background) [12]: 820 MFI a.u
Ratio Cyno/Hu (EC-50) [13]: 1.61
EC50 [5]: 0.72 nM
EC50 [14]: 0.91 nM
Ratio Cyno/Hu (EC50) [7]: 2.43
EC50 [8]: 0.3 nM
Ratio Hu/Cyno (max binding) [15]: 1.2

Next, values leading:

EC50 [3]: 1.29 nM
B2: Clone 15 (antibody, V domains shown)
VH: B1 VH with Y52F, I57S, E62K, N66R, T84S
VL: B1 VL with S31N, N34S, S83F

fold more potent in binding CD112R than the reference Ab (Human CD112R (PVRIG) [1]): 3 to 30 fold
koff (Human CD112R (PVRIG) [2]): 2.96e-06 s⁻¹
kon (Human CD112R (PVRIG) [2]): 340000 M⁻¹ s⁻¹
EC50 [3]: 1.24 nM
Kd (Human CD112R (PVRIG) [6]): 8.71 pM
B4: Clone-13-hIgG1 (antibody, V domains shown)
VH: B1 VH
VL: B1 VL with S31N
notes: Chimeric antibody with human IgG1 constant region; also called chimeric clone (clone 13)

fold improved binding compared to the reference Ab [16]: > 2 fold
Max binding Hu (MFI a.u - background) [11]: 988 MFI a.u
EC50 [12]: 1.39 nM
Max binding Cyno (MFI a.u - background) [12]: 933 MFI a.u
Ratio Cyno/Hu (EC-50) [13]: 1.81
EC50 [5]: 0.5 nM
EC50 [14]: 0.77 nM
Ratio Cyno/Hu (EC50) [7]: 1.67
EC50 [8]: 0.3 nM
Kd (Human CD112R (PVRIG) [9]): 0.121 nM
Relative Kd (against VH0K0 N28T) (Human CD112R (PVRIG) [9]): 0.96
koff (Human CD112R (PVRIG) [9]): 4.36e-05 s⁻¹
kon (Human CD112R (PVRIG) [9]): 361000 M⁻¹ s⁻¹
Ratio Hu/Cyno (max binding) [15]: 1.06
B5: VH10K3 (full humanized antibody) (antibody, V domains shown)
VH: B3 VH with R87A, V93L
VL: DIVMTQSPDSLAVSLGERATINCKSSQSLLSSGNQKNYLAWYQQKPGQPPKLLIYGASTRESGVPDRFSGSGSGTDFTLTISSLQAEDVAVYYCQNDHSYPYTFGQGTKLEIK
notes: Humanized full antibody, human IgG1

EC50 [10]: 0.26 nM
EC-90 [10]: 9.6 nM
Kd (Human CD112R (PVRIG) [17]): 0.0788 nM
Relative Kd (against VH0K0 N28T) (Human CD112R (PVRIG) [17]): 0.63
koff (Human CD112R (PVRIG) [17]): 2.42e-05 s⁻¹
kon (Human CD112R (PVRIG) [17]): 307000 M⁻¹ s⁻¹
Max binding Hu (MFI a.u - background) [11]: 1000 MFI a.u
EC50 [12]: 1.27 nM
Max binding Cyno (MFI a.u - background) [12]: 833 MFI a.u
Ratio Cyno/Hu (EC-50) [13]: 1.14
EC50 [5]: 0.6 nM
EC50 [14]: 1.11 nM
Ratio Cyno/Hu (EC50) [7]: 1.93
EC50 [8]: 0.31 nM
Ratio Hu/Cyno (max binding) [15]: 1.21
B6: H11K3 (full humanized antibody) (antibody, V domains shown)
VH: B3 VH
VL: B5 VL
notes: Humanized full antibody comprising hIgG1 Fc; also called VH11K3

fold improved binding compared to the reference Ab [16]: > 2 fold
Max binding Hu (MFI a.u - background) [11]: 975 MFI a.u
EC50 [12]: 1.45 nM
Max binding Cyno (MFI a.u - background) [12]: 914 MFI a.u
Ratio Cyno/Hu (EC-50) [13]: 1.69
EC50 [5]: 0.42 nM
EC50 [14]: 0.86 nM
Ratio Cyno/Hu (EC50) [7]: 1.07
EC50 [8]: 0.4 nM
Kd (Human CD112R (PVRIG) [9]): 0.119 nM
Relative Kd (against VH0K0 N28T) (Human CD112R (PVRIG) [9]): 0.94
koff (Human CD112R (PVRIG) [9]): 4.27e-05 s⁻¹
kon (Human CD112R (PVRIG) [9]): 359000 M⁻¹ s⁻¹
Ratio Hu/Cyno (max binding) [15]: 1.07
B8: VH10K2 (full humanized antibody) (antibody, V domains shown)
VH: B3 VH with R87A, V93L
VL: B5 VL with S69T
notes: as for B5
